Test results published in article PMC5829233, “PV1, a novel Plasmodium falciparum merozoite dense granule protein, interacts with exported protein in infected erythrocytes” (Scientific Reports, 2018).

B1: recombinant PfPV1 (P. falciparum Parasitophorous Vacuolar protein 1), His-tagged (natural protein)
chain: VVAPKSAEAVHTLTAKLDTENKAHQKYIDIINGVFSENMENFVFSITTSNGFTCSINKLDVIFDNKVTGMQKVFSDENVQYIKEASLEFKNNLLEYMKGVMPSENDFSNVRKEFQKVCVKYFSELRRKFFQIYRDPNNKNQNEDNVDNHMNIEEISQEFFSGFNPFGTMKIRKEQNPDLSQKDSLILNENNNDSLTSADQKNNNMVPMENRSFSYSQQSSHVVSFDGHDEHVEQQEQHSGDNTQEDKDQLMDLPFNKDKVFSTFLKNVTLLIEGNCTEAQQQAQEQTQEQTEEQEEEQNEKEIESDKQVQKDGEQKENDVQKKQKANAFTIQFSSSLSRKHISTTCNASSGNVFLRKGNKPFEHFNSPNFENMMKGVFGIIQNPFENGQPTFPFFKNINSISGIGNVDIPKNFMNDFLNNGNDQNTPISS
notes: also called His-tagged purified recombinant PfPV1; not shown: His6, C-terminal, kept
B3: PTP5_Tr0, GST-tagged recombinant PTP5 36 aa - 631 aa (domain or fragment)
chain: TYNNYTYNGYNNDGSKQVRCKRLLSEPAVEFDTIFDVFKESFLDQMGCSDQDKDEIKNAMKIYYDNIDMNALSNEIQTNDNFFNEFGNDVNSINKIMKTDITNEQGTSADNNTTENNVSTSQVDEQPEASTSGVERMKERSNLFANNLTEEKNDTGDIKKEENKSKPSQLDGNNHSETSSHQGEKNNENETEKKTDQNETGTKKPSKYTMNLDSPLLKGSSEGETSSKKAQEKSVEPTKKPSKYTMNLDSPLLKGSSGSETSSTKESNDSNGATKKPSKYTMNLDSPLLKGSSGGKTSSNKESNESNEPTKKPSKYTMNLDSPLLKGSSGGETSSNKESNENNEPTKKPSKYTMNLDSPLLKGSSEGETSSNKESNESNEPTKKPSKYTMNLDSPLLKGSSGGETSSNKESNENNEPTKKPSKYTMNLDSPLLKGSSEGETSSNKESNESNEPTKKPSKYTMNLDSPLLKGSSEGETSSNEKQEESNVATKKPSKYTLNLDSPLLKSETKSDVKRGSNKSFSLENIGKLDIGSLLAQNLELLKGFALNFQTLSLFFLVFVGQFYPKHFQKAAIFIGMVNVFLECKRLYGRSQKKLK
notes: not shown: GST, N-terminal, kept

Tests used:
[1] = target: recombinant PfPV1 (P. falciparum Parasitophorous Vacuolar protein 1), His-tagged (P. falciparum 3D7) (UniProt Q8II72); assay: SPR; Biacore X100, CM5 chip, […]; HBS-EP+ (10 mM HEPES pH 7.4, 150 mM NaCl, 3 mM EDTA, 0.05% P20); multi-cycle kinetics, global fit
[2] = target: recombinant PfPV1 (P. falciparum Parasitophorous Vacuolar protein 1), His-tagged (P. falciparum 3D7) (UniProt Q8II72); assay: SPR; Biacore X100, CM5 chip, […]; HBS-EP+ (10 mM HEPES pH 7.4, 150 mM NaCl, 3 mM EDTA, 0.05% P20); single-cycle kinetics, global fit
[3] = target: B3; assay: as above; settings: both partners purified
[4] = target: T1, recombinant PfPV1 (P. falciparum Parasitophorous Vacuolar protein 1), His-tagged (P. falciparum 3D7, UniProt Q8II72 23-452); assay: SPR
T1 chain: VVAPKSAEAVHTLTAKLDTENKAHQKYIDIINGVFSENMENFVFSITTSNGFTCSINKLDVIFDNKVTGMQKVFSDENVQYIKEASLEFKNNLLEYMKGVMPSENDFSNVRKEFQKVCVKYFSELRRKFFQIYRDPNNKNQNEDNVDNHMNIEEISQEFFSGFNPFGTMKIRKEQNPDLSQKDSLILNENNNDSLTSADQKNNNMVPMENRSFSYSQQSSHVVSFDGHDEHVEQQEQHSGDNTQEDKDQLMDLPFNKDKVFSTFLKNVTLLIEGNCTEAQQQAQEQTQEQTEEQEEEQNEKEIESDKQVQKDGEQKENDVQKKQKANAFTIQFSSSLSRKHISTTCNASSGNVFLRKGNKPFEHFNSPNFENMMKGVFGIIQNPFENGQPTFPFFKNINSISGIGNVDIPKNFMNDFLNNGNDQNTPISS

[5] = target: B1; assay: SPR; Biacore X100, CM5 chip, […]; HBS-EP+ (10 mM HEPES pH 7.4, 150 mM NaCl, 3 mM EDTA, 0.05% P20); single-cycle kinetics, global fit; settings: both partners purified

Molecule: PTP5_Tr1, GST-tagged recombinant PTP5 36 aa - 334 aa (domain or fragment)
- Kd [1]: 938 nM

Molecule: PTP5_Tr2, GST-tagged recombinant PTP5 537 aa - 631 aa (domain or fragment)
- Kd [2]: 1.24 nM

Molecule: B1
- Kd [3]: 2.71 nM

B2: Pf3D7_0801000N, N-terminal truncate of Pf3D7_0801000 spanning 93 aa - 494 aa (domain or fragment)
chain: GANPESISLGYELSEKDEGNKNDLINSATDVSTELENLKERLFPELELYTNDQNSRNNTPNLRKGSLGFDSFKKLELGTLNQFDKDKMINLKDETNMNEFEGFLGRNSMASNVVTSELFDEPVDDSSSTTTSTGTKLQNVPSNDNNGELLKDEPIDDYINNNSKVESEDNYYAQQNMQSQSKDNYASEQNVADQSTDNYPTQHDVPVQLRDNYASEQEYFDRGEQLNDVSADNNTSNKLKDEPVDNNTSNKLKDEPVDNNTSNKLKDEPVDDNTSNKLKDEPVDNNTINKLKDEPVDDNTSNILKDEPVDDHAGKHLKDEPVDDHAGKHMKDEPVDIDRTNIKKGLNEQHVNPWTTTLADLKNINNSMKIEKNNKSNEQVKNTSVSKSCDIIKPSKFNKKNL
- Kd [4]: 45.4 nM

Molecule: B3
- stoichiometry N [5]: 1
